B1: Fab-Fc/Fab-Fc bispecific antibody (zalutumumab anti-EGFR A half-antibody / pertuzumab anti-HER2 B half-antibody), M1 combination (K2/H2) (bispecific antibody)
heavy 1: not shown
light 1: not shown
heavy 2: EVQLVESGGGLVQPGGSLRLSCAASGFTFTDYTMDWVRQAPGKGLEWVADVNPNSGGSIYNQRFKGRFTLSVDRSKNTLYLQMNSLRAEDTAVYYCARNLGPSFYFDYWGQGTLVTVSSASTKGPSVFPLAPSSKSTSGGTAALGCLVKDYFPEPVTVSWNSGALTSGVHTFPAVLQSSGLYSLSSVVTVPSSSLGTQTYICNVNHKPSNTKVDKKVEPKSCDKTHTCPPCPAPELLGGPSVFLFPPKPKDTLMISRTPEVTCVVVDVSHEDPEVKFNWYVDGVEVHNAKTKPREEQYNSTYRVVSVLTVLHQDWLNGKEYKCKVSNKALPAPIEKTISKAKGQPREPQVYTLPPSREEMTKNQVSLSCAVKGFYPSDIAVEWESNGQPENNYKTTPPVLRSDGSFFLVSKLTVDKSRWQQGNVFSCSVMHEALHNHYTQKSLSLSPGK
light 2: not shown
notes: No linker named between Fab and Fc; also called M1 mutant combination
B2: Fab-Fc/Fab-Fc bispecific antibody (zalutumumab anti-EGFR A half-antibody / pertuzumab anti-HER2 B half-antibody), M3 combination (K2/H7) (bispecific antibody)
heavy 1: not shown
light 1: not shown
heavy 2: B1 heavy 2 with L353Y
light 2: not shown
notes: No linker named between Fab and Fc; also called M3 mutant combination
B3: Fab-Fc/Fab-Fc bispecific antibody (zalutumumab anti-EGFR A half-antibody / pertuzumab anti-HER2 B half-antibody), M2 combination (K0/H8) (bispecific antibody)
heavy 1: not shown
light 1: not shown
heavy 2: B1 heavy 2 with L353Y, R401D
light 2: not shown
notes: No linker named between Fab and Fc; also called M2 mutant combination

Positions count from the first letter of the chain named.

The target of the first test is T1, recombinant human FcγRI protein (ACRO Biosystems, Cat. FCA-H52H1) (human, UniProt P12314 16-288, limits assumed).
T1 construct: also called human FcγRI receptor
T1 sequence (P12314 16-288 limits assumed): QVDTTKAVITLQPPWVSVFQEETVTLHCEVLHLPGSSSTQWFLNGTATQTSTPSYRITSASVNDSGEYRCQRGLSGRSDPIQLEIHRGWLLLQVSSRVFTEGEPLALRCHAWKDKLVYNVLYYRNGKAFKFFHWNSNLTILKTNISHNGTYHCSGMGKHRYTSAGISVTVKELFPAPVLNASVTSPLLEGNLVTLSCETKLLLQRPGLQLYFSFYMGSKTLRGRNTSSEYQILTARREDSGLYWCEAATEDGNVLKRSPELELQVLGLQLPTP
In words: BLI (ForteBio Octet Red 96), human FcγRI immobilised on HIS1K sensors, 100 nM antibody; FcγRI table.
Consider B1, for which the Kd (usually the constant that tells how readily two partners part at equilibrium) was found to be 10 nM and the kon (in general, the second-order rate constant of association) amounted to 459000 M⁻¹ s⁻¹.
For B2, in that order: 10.3 nM and 455000 M⁻¹ s⁻¹.
On the same counts, the results for B3 are 10 nM and 452000 M⁻¹ s⁻¹.

For another test, the target named is T2, recombinant human FcRn (ACROBiosystems Cat FCM-H8286) (human, UniProt P55899 24-297; P61769 21-119).
T2 construct: also called human FcRn receptor
T2 sequence (P55899 24-297 limits assumed, chain 1 of 2): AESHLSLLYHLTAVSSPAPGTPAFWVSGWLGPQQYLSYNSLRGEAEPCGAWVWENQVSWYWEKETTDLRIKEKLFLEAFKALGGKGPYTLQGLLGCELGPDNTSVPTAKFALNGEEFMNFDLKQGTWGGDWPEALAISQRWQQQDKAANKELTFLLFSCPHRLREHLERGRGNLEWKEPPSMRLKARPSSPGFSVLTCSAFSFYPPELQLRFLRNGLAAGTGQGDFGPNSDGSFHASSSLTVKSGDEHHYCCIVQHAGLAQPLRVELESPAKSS
T2 sequence (P61769 21-119 limits assumed, chain 2 of 2): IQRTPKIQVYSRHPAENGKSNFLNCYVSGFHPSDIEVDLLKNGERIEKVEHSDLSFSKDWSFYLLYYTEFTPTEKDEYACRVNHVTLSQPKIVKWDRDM
In words: BLI (ForteBio Octet Red 96), human FcRn immobilised on SA sensors, pH 6.0 buffer, 100 nM antibody; FcRn table.
With B1, the Kd came out at 14.4 nM and the kon came out at 1.82e+06 M⁻¹ s⁻¹.
In the case of B2, the Kd amounted to 17.7 nM and the kon worked out at 1.55e+06 M⁻¹ s⁻¹.
As to B3, the Kd stood at 17.6 nM and the kon is 1.69e+06 M⁻¹ s⁻¹.

For the next test, the target named is T1, recombinant human FcγRI protein (ACRO …). In words: BLI (ForteBio Octet Red 96), human FcγRI immobilised on HIS1K sensors, 100 nM antibody; FcγRI table, column Kdis. On the technique in general: Biolayer interferometry detects binding as a change in optical thickness at a sensor tip.
With B1, the koff (usually the first-order rate constant of dissociation) came to 0.00461 s⁻¹.
On the same count and under the same terms, to B2 belongs 0.00471 s⁻¹; to B3, 0.00453 s⁻¹.

The target in another test is T2, recombinant human FcRn (ACROBiosystems …). In words: BLI (ForteBio Octet Red 96), human FcRn immobilised on SA sensors, pH 6.0 buffer, 100 nM antibody; FcRn table, column Kdis.
Consider B1, for which the dissociation rate constant (koff) is 0.0261 s⁻¹.
Still for that read-out and setting: to B2 belongs 0.0274 s⁻¹; to B3, 0.0296 s⁻¹.

A further test has as its target T3, Recombinant human EGFR protein (ACRO Biosystems, EGR-H5222) (human, UniProt P00533 25-645).
T3 construct: Bought protein
The experiment in a line: ELISA, plate coated with recombinant human EGFR at 1 µg/mL, HRP-labelled secondary antibody, OD450; EGFR panel, table under the curves (unit from the concentration axis). (In general: An ELISA detects its analyte on a solid surface through an enzyme-linked reagent.)
Regarding B1, the EC50 (usually the concentration giving half of the maximal effect) is 0.017 µg/mL.
Take B2: the EC50 came out at 0.0221 µg/mL.
As for B3, the EC50 came to 0.0206 µg/mL.

The record behind these values is patent US20260265361A1 (PHRONTLINE BIOPHARMA SUZHOU, published 2026).
